# T1: human CAPRIN-1 protein on human cancer cells and in human cancer tissues (human, UniProt Q14444 2-709)
# T1 construct: whole, on cells; Endogenous protein of the cell lines and tissue arrays; also called CAPRIN-1 protein expressed on the cell membrane surfaces of human cancer cell lines
# T1 sequence (looked up): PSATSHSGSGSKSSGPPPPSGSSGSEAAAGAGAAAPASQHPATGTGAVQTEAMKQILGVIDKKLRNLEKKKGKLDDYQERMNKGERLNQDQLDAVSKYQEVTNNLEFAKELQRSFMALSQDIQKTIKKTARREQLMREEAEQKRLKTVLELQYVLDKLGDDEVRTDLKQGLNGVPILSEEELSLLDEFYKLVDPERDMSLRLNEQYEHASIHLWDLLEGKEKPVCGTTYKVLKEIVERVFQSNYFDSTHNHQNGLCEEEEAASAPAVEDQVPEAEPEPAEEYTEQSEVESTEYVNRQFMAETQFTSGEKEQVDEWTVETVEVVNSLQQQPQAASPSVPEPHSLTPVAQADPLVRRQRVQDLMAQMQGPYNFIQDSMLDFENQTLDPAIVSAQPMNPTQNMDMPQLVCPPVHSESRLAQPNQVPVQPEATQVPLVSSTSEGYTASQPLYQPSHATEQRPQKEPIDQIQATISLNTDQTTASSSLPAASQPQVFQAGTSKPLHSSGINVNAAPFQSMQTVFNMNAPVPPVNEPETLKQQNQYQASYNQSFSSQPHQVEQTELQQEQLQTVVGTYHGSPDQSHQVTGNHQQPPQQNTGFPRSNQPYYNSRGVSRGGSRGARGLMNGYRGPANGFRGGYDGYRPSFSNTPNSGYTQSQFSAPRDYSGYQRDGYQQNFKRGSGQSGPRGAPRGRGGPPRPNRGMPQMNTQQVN
# T2: recombinant human CAPRIN-1 protein having the amino acid sequence represented by SEQ ID NO: 2 (human, UniProt Q14444 2-709)
# T2 construct: The His-tag was cleaved off with enterokinase; also called antigen protein (human CAPRIN-1)
# T2 sequence: T1 sequence (looked up)
# B1: monoclonal antibody #1 prepared in Example 4 (antibody, V domains shown)
# VH: AVTLDESGGGLQTPGGGLSLVCKASGFTFSSFDMGWVRQAPGKGLEFVAQINDAGSRTWYATAVKGRATISRDNGQTTVRLQLNNLRAEDTGTYYCTRGSGYVGAGAIDAWGHGTEVIVS
# VL: AALTQPSSVSANPGETVKITCSGGSGYYGWYQQQKSPGSAPVTVIYQNDKRPSDIPSRFSGSGSGSTNTLTITGVQAEDEAVYFCGRYDSTDSGIFGAGTTLTVL
# notes: also called anti-CAPRIN-1 monoclonal antibody
# B2: chicken monoclonal antibody #1 (antibody, V domains shown)
# VH: B1 VH
# VL: B1 VL
# notes: Chicken hybridoma antibody tested as culture supernatant and detected with anti-chicken IgY/IgG secondary antibodies; the chicken constant regions are not; also called anti-CAPRIN-1 monoclonal antibody #1
# Legend:
# [1] = biological target: T1, human CAPRIN-1 protein on human cancer …; experiment: immunohistochemical staining of paraffin-embedded human cancer tissue arrays
# Description: After 3 hours of treatment of the human breast cancer tissue array at 60° C., the array was placed in a staining bottle filled with xylene, followed by xylene replacement being repeated three times every 5 minutes. Next, a similar procedure was performed with ethanol and PBS-T instead of xylene. The human breast cancer tissue array was placed in a staining bottle filled with 10 mM citrate buffer (pH 6.0) containing 0.05% Tween20. After 5 minutes of treatment at 125° C., the array was left to stand at room temperature for 40 minutes or more. Excess water around the sections was removed with Kimwipes, the sections were circled with a DAKOPEN, and Peroxidase Block (DAKO) was added dropwise in appropriate amounts. After left to stand at room temperature for 5 minutes, the array was placed in a staining bottle filled with PBS-T, followed by PBS-T replacement being repeated three times every 5 minutes. As a blocking solution, a PBS-T solution containing 10% FBS was placed on the array, and then the array was left to stand in a moist chamber at room temperature for 1 hour. Next, a solution of the monoclonal antibody #1 of 10 μg/ml adjusted with a PBS-T solution containing 5% FBS, which reacts with cancer cell surfaces and had been prepared in Example 4, was placed on, and the array was left to stand overnight in a moist chamber at 4° C. […]
# [2] = biological target: T2, recombinant human CAPRIN-1 protein …; experiment: ELISA; CAPRIN-1 protein coated at 1 ug/ml, hybridoma culture supernatant, HRP anti-chicken IgY
# Description: The thus selected hybridomas were added to a 96-well plate at 0.5 cells per well and then cultured. After 1 week, hybridomas that had formed single colonies in wells were observed. These cells in the wells were further cultured, and then hybridomas were selected using as a marker the binding affinity of antibodies produced by the cloned hybridomas to the CAPRIN-1 protein. The CAPRIN-1 protein solution (1 μg/ml) prepared in Example 2 was added to a 96-well plate at 100 μl per well, and then left to stand at 4° C. for 18 hours. Each well was washed with PBS-T three times, 400 μl of a 0.5% BSA solution was added per well, and then the resultant was left to stand at room temperature for 3 hours. The solution was removed, and then the wells were washed three times with 400 μl of PBS-T per well. 100 μl of each culture supernatant of the above-obtained hybridomas was added per well, and then the plate was left to stand at room temperature for 2 hours. After washing each well three times with PBS-T, 100 μl of an HRP-labeled anti-chicken IgY antibody (SIGMA) diluted 5000-fold with PBS was added per well and then left to stand at room temperature for 1 hour. […] After color development, 100 μl of 1N sulfuric acid was added per well to stop the reaction and then absorbances at 450 nm and 595 nm were measured using an absorption spectrometer. […]
# [3] = biological target: T1, human CAPRIN-1 protein on human cancer …; experiment: flow cytometry on MDA-MB-231V human breast cancer cells, hybridoma culture supernatant, FITC anti-chicken IgG
# Description: Next, of those monoclonal antibodies, antibodies reactive with the cell surfaces of breast cancer cells expressing CAPRIN-1 were selected. Specifically, 5×10⁵ cells of the human breast cancer cell line MDA-MB-231V were subjected to centrifugation in a 1.5-ml microcentrifuge tube, and 100 μl of the culture supernatant of each of the above hybridomas was added to the tube, and then the tube was left to stand on ice for 1 hour. After washing with PBS, an FITC-labeled goat anti-chicken IgG (H+L) antibody (SouthernBiotech) diluted 30-fold with PBS containing 0.1% FBS was added, and then the resultant was left to stand on ice for 1 hour. After washing with PBS, fluorescence intensity was measured using a FACS caliber (Becton, Dickinson and Company). Meanwhile, procedures similar to the above were performed for medium for culturing hybridomas, so that a control sample was obtained.
binder,measurement,setting,value
B1,binding result,[1],binds
B2,binding result,[2],binds
same,binding result,[3],binds

# Source: US20120321641A1 (TORAY INDUSTRIES, published 2012)
